The series in a line: label from the status in PepcDB records.
“MRDVIIALLPATIFGIINFEINAMILILTCVVSCVLFEWLYQKMMNRKVTIYDLSAVVTGLLLALNLSPDVPIWMAILGSAFAIIIVKQLFGGLGFNFMNPALGARCFLLISFAGRMTSFSYDGVTTATPLAVLKNTGDLANVNVLHMFLGNIPGTIGETSVVCILVGAAYLLIRRVIKPVIPLTYIGTFAVLIMIYALASGRGFDLTFLAAHLCGGGLMLGAFFMATDYVTSPITPAGKVVFGVILGILTFCFRIYGGSAEGVSYAIIFSNLLVPLIERWTQPKSFGEGAELAAQGDTSGTKSKMDTRSIIIATIAIMIITVIAGFALAYVYKVTKDPIAVTEQKAKEEAYKAVFGDADSFDSYSDFDADAAAKVLKDAGYNADIDEVVEAKNSDGSVLGYVVTVTSHEAYSGDLQLAMGVRTDGTTNGISFLSLSETAGLGMEADTDSFKSQFAGKKVDKFKYTKSGATVDEEIDALSGATITTNAVTNAVDAGLEYVKSINGGAADPSNALDETDASNGGDK”: the protein production entry was “failed”.
Regarding “MKEDIVSGTVKRVERHGIIVEVVAGKLDALIPRDQMIPRENFRSGDRIRALFLRVEEIGNTGRKQVILSRTSGDFLVKLYANEVPLEHHHHHH”, the protein production entry is on record as “failed”.
As for “MSCTNRVPGILMCEIFIRANQRSYSVQARSLRLHGVATSVRLEQLFWDVLEEIAARDGMRVTQLIERLYDELVQYRGEAANFTSFLRVCCLRYQVLQAEGRIPADATVPIRSLDAQAVLRGLPANLYDSRPLG”, the protein production result is “failed”.
As for “MEQLQIGDIKVTWLKGGNTHLDGGAMFGVVPKVLWSRKYKHNDTNHIYLRTDPLLLQTKDGNMLIDSGIGNGKLNEKMKRNQGVTEESSVYESLEKLGLKPEDIDYVLMTHLHFDHASGLTKWEDDHLVPSFPNAKVYVSETEWNEMRNPNIRSRNTYWKENWEPIVDQVVTFQQEIEITDEIKMARTGGHSDGHAVIALESQGETMLHLADLLPTHAHQNVLWVMAYDDYPMTSIENKQKWMKYGAEKEAWFTFYHDAYYRAVKWNEEGHIVEKIERKTSIEA”, the protein production entry is listed as “failed”.
With “MSTVRSIYYRGSLEHCNYTCSYCPFGRKSVSADTTEDQEALDRFISRIGGWKYGSLRILIIPYGEAMIHRYYREGIMRLAAMPHVIGVSCQTNLSFSVSRFLDEAEAEQADVSKFRFWASYHPEMVGVGEFASKVEMLRAAGIGVCAGAVGDPSAKEQIRKLRQLLDPSVYLFVNAMQGLRKPLSEEDIRFFGEIDNLFDYDRRNAKACLDGCVGGRETLFIDRKGDMYACPRSGIRMGNFYDDSTSDFQPFCLRKVCDCYIAFSNLCDTPLRRMMGDGALWRIPERKKVEAVFFDVDGTLTDAQGRIPDRTVSVLEYMAKRLPLYLSTALPVSHAKKRLGNVFGLFSGGVFADGGLLCYGETIECVPIANPMTAGFPGCRVTRYTREGKVFKYAVLAPNTREAVRWLTELDEEAYQLYQEGRLLTVVDSKASKKNGLITLCARLGISLREVLVVGNTMHDWPMMSVAGYSCAVMDAEEKLRKLSGYVLNPDSIPVFFDILEHHHHHH”, the protein production result was “failed”.
In the case of “MNHAITMGIFWHLIGAASAACFYAPFKKVKHWSWETMWSVGGIVSWLILPWAISATLLPDFWAYYRSFSASTLLPVFLFGAMWGIGNINYGLTMRYLGMSMGIGIAIGITLIVGTLMTPIINGQFAVLMHTQGGQMTLLGVLVAVIGVGIVTRAGQLKERKMGIKAEEFNLKKGLLLAVMCGIFSAGMSFAMNAAKPMHDAAAALGVDPLYAALPSYVVIMGGGALVNLGFCFIRLAKVKNLSVKADFSLAKPLIISNLLLSALGGLMWYLQFFFYAWGHASIPAQYDYMSWMLHMSFYVLCGGVVGLVLKEWNNAGRRPVSVLSLGCVVIIIAANIVGLGMAS”, the protein production result is reported as “failed”.
As for “MNTSDRIKSTQIALDRDLREQALLLLKEVRAVDGVDALSEQFVRGLAEPGLGHSHLIVTLNDKLVGLAATDEETTELAVHPAHRRQGIGKALIDAT”, the entry is “failed”.
For the sequence “MDSGTINIKKWVVIYPVYINSKKTVAEGRRISVSKSCENPNCIEISDCCKHLKLPSAVEIDKAYPRDFMQVGRVRVQLKREDGTLLNPAITSRKHLMQKIAELVPRHPERVKKQEAQKAKKQEPQATTSTSGTSSKSGKGGKKKR”, the protein production entry is listed as “failed”.
Take “ALSGSSGYKFGVLAKIVNYMKTRHQRGDTHPLTLDEILDETQHLDIGLKQKQWLMTEALVNNPKIEVIDGKYAFKPKYNVR”: the protein production entry is given as “not failed”.
